Experimental data as given in publication PMC10300371, “Categorization of Escherichia coli outer membrane proteins by dependence on accessory proteins of the β-barrel assembly machinery complex” (The Journal of Biological Chemistry, 2023).

Target: the molecule itself
Test: native gel or EMSA; 35S-labelled protein incubated with EMM at 30 °C for 10 to 90 min, EMM solubilised in 1.5% DDM, BN-PAGE and radioimaging; monomer to trimer

| Protein | stoichiometry N |
| --- | --- |
| LamB (natural protein, E. coli, UniProt P02943 26-446, looked up, 35S-methionine and 35S-cysteine (radiolabel), Made as a monomer and seen as a trimer after assembly into EMM; also called 35S-labeled LamB; maltoporin; source: in vitro translated, rabbit reticulocyte lysate (Promega), 35S-labelled; assembled into EMM) VDFHGYARSGIGWTGSGGEQQCFQTTGAQSKYRLGNECETYAELKLGQEVWKEGDKSFYFDTNVAYSVAQQNDWEATDPAFREANVQGKNLIEWLPGSTIWAGKRFYQRHDVHMIDFYYWDISGPGAGLENIDVGFGKLSLAATRSSEAGGSSSFASNNIYDYTNETANDVFDVRLAQMEINPGGTLELGVDYGRANLRDNYRLVDGASKDGWLFTAEHTQSVLKGFNKFVVQYATDSMTSQGKGLSQGSGVAFDNEKFAYNINNNGHMLRILDHGAISMGDNWDMMYVGMYQDINWDNDNGTKWWTVGIRPMYKWTPIMSTVMEIGYDNVESQRTGDKNNQYKITLAQQWQAGDSIWSRPAIRVFATYAKWDEKWGYDYTGNADNNANFGKAVPADFNGGSFGRGDSDEWTFGAQMEIWW | 3 |
| OmpC (natural protein, E. coli, UniProt P06996 22-367, looked up, 35S-methionine and 35S-cysteine (radiolabel), Made as a monomer and seen as a trimer after assembly into EMM; also called 35S-labeled OmpC; major porin; source: in vitro translated, rabbit reticulocyte lysate (Promega), 35S-labelled; assembled into EMM) AEVYNKDGNKLDLYGKVDGLHYFSDNKDVDGDQTYMRLGFKGETQVTDQLTGYGQWEYQIQGNSAENENNSWTRVAFAGLKFQDVGSFDYGRNYGVVYDVTSWTDVLPEFGGDTYGSDNFMQQRGNGFATYRNTDFFGLVDGLNFAVQYQGKNGNPSGEGFTSGVTNNGRDALRQNGDGVGGSITYDYEGFGIGGAISSSKRTDAQNTAAYIGNGDRAETYTGGLKYDANNIYLAAQYTQTYNATRVGSLGWANKAQNFEAVAQYQFDFGLRPSLAYLQSKGKNLGRGYDDEDILKYVDVGATYYFNKNMSTYVDYKINLLDDNQFTRDAGINTDNIVALGLVYQF | 3 |
| OmpF (natural protein, E. coli, UniProt P02931 23-362, looked up, 35S-methionine and 35S-cysteine (radiolabel), Made as a monomer and seen as a trimer after assembly into EMM; also called 35S-labeled OmpF; major porin; source: in vitro translated, rabbit reticulocyte lysate (Promega), 35S-labelled; assembled into EMM) AEIYNKDGNKVDLYGKAVGLHYFSKGNGENSYGGNGDMTYARLGFKGETQINSDLTGYGQWEYNFQGNNSEGADAQTGNKTRLAFAGLKYADVGSFDYGRNYGVVYDALGYTDMLPEFGGDTAYSDDFFVGRVGGVATYRNSNFFGLVDGLNFAVQYLGKNERDTARRSNGDGVGGSISYEYEGFGIVGAYGAADRTNLQEAQPLGNGKKAEQWATGLKYDANNIYLAANYGETRNATPITNKFTNTSGFANKTQDVLLVAQYQFDFGLRPSIAYTKSKAKDVEGIGDVDLVNYFEVGATYYFNKNMSTYVDYIINQIDSDNKLGVGSDDTVAVGIVYQF | 3 |
